7 molecules from patent publication US20260139061A1 (Novartis, published 2026) can be followed below.

To fix the notation:
B1: CAR 3 - Soluble scFv (scFv)
scFv: EIQLVQSGAEVKKPGESLRISCKGSGFNIEDYYIHWVRQMPGKGLEWMGRIDPENDETKYGPIFQGHVTISADTSINTVYLQWSSLKASDTAMYYCAFRGGVYWGQGTTVTVSSGGGGSGGGGSGGGGSGGGGSDVVMTQSPLSLPVTLGQPASISCKSSQSLLDSDGKTYLNWLQQRPGQSPRRLISLVSKLDSGVPDRFSGSGSGTDFTLKISRVEAEDVGVYYCWQGTHFPGTFGGGTKVEIKGSHHHHHHHH
notes: Soluble His-tagged humanized scFv; also called humanized EGFRvIII scFv variant, VH5-VK2, 4G4S
B2: CAR1 Soluble scFv (scFv)
scFv: EIQLVQSGAEVKKPGATVKISCKGSGFNIEDYYIHWVQQAPGKGLEWMGRIDPENDETKYGPIFQGRVTITADTSTNTVYMELSSLRSEDTAVYYCAFRGGVYWGQGTTVTVSSGGGGSGGGGSGGGGSGGGGSDVVMTQSPDSLAVSLGERATINCKSSQSLLDSDGKTYLNWLQQKPGQPPKRLISLVSKLDSGVPDRFSGSGSGTDFTLTISSLQAEDVAVYYCWQGTHFPGTFGGGTKVEIKGSHHHHHHHH
notes: Soluble His-tagged humanized scFv; also called humanized EGFRvIII scFv variant, VH1-VK4, 4G4S
B3: CAR8 - Soluble scFv (scFv)
scFv: DVVMTQSPLSLPVTLGQPASISCKSSQSLLDSDGKTYLNWLQQRPGQSPRRLISLVSKLDSGVPDRFSGSGSGTDFTLKISRVEAEDVGVYYCWQGTHFPGTFGGGTKVEIKGGGGSGGGGSGGGGSGGGGSEIQLVQSGAEVKKPGATVKISCKGSGFNIEDYYIHWVQQAPGKGLEWMGRIDPENDETKYGPIFQGRVTITADTSTNTVYMELSSLRSEDTAVYYCAFRGGVYWGQGTTVTVSSGSHHHHHHHH
notes: Soluble His-tagged humanized scFv; also called humanized EGFRvIII scFv variant, VK2-VH1, 4G4S
B4: CAR4 - Soluble scFv (scFv)
scFv: DVVMTQSPLSLPVTLGQPASISCKSSQSLLDSDGKTYLNWLQQRPGQSPRRLISLVSKLDSGVPDRFSGSGSGTDFTLKISRVEAEDVGVYYCWQGTHFPGTFGGGTKVEIKGGGGSGGGGSGGGGSGGGGSEIQLVQSGAEVKKPGESLRISCKGSGFNIEDYYIHWVRQMPGKGLEWMGRIDPENDETKYGPIFQGHVTISADTSINTVYLQWSSLKASDTAMYYCAFRGGVYWGQGTTVTVSSGSHHHHHHHH
notes: Soluble His-tagged humanized scFv; also called humanized EGFRvIII scFv variant, VK2-VH5, 4G4S
B5: CAR5 - Soluble scFv (scFv)
scFv: EIQLVQSGAEVKKPGATVKISCKGSGFNIEDYYIHWVQQAPGKGLEWMGRIDPENDETKYGPIFQGRVTITADTSTNTVYMELSSLRSEDTAVYYCAFRGGVYWGQGTTVTVSSGGGGSGGGGSGGGGSGGGGSDVVMTQSPLSLPVTLGQPASISCKSSQSLLDSDGKTYLNWLQQRPGQSPRRLISLVSKLDSGVPDRFSGSGSGTDFTLKISRVEAEDVGVYYCWQGTHFPGTFGGGTKVEIKGSHHHHHHHH
notes: Soluble His-tagged humanized scFv; also called humanized EGFRvIII scFv variant, VH1-VK2, 4G4S
B6: CAR2 - Soluble scFv (scFv)
scFv: DVVMTQSPDSLAVSLGERATINCKSSQSLLDSDGKTYLNWLQQKPGQPPKRLISLVSKLDSGVPDRFSGSGSGTDFTLTISSLQAEDVAVYYCWQGTHFPGTFGGGTKVEIKGGGGSGGGGSGGGGSGGGGSEIQLVQSGAEVKKPGATVKISCKGSGFNIEDYYIHWVQQAPGKGLEWMGRIDPENDETKYGPIFQGRVTITADTSTNTVYMELSSLRSEDTAVYYCAFRGGVYWGQGTTVTVSSGSHHHHHHHH
notes: Soluble His-tagged humanized scFv; also called humanized EGFRvIII scFv variant, VK4-VH1, 4G4S
B7: CAR10 (Anti-EGFRvIII clone 139), full CAR on cells (other)
chain: DIQMTQSPSSLSASVGDRVTITCRASQGIRNNLAWYQQKPGKAPKRLIYAASNLQSGVPSRFTGSGSGTEFTLIVSSLQPEDFATYYCLQHHSYPLTSGGGTKVEIKRTGSTSGSGKPGSGEGSEVQVLESGGGLVQPGGSLRLSCAASGFTFSSYAMSWVRQAPGKGLEWVSAISGSGGSTNYADSVKGRFTISRDNSKNTLYLQMNSLRAEDTAVYYCAGSSGWSEYWGQGTLVTVSSTTTPAPRPPTPAPTIASQPLSLRPEACRPAAGGAVHTRGLDFACDIYIWAPLAGTCGVLLLSLVITLYCKRGRKKLLYIFKQPFMRPVQTTQEEDGCSCRFPEEEEGGCELRVKFSRSADAPAYKQGQNQLYNELNLGRREEYDVLDKRRGRDPEMGGKPRRKNPQEGLYNELQKDKMAEAYSEIGMKGERRRGKGHDGLYQGLSTATKDTYDALHMQALPPR
notes: Chimeric antigen receptor (139 scFv, CD8 hinge and TM, 4-1BB, CD3 zeta) on Jurkat, JNL or primary human T cells; also called human CAR10

The first test concerns the target T1, human EGFRvIII (epidermal growth factor receptor variant III), expressed on cells (human, UniProt P00533 25-1210).
T1 construct: whole, on cells; also called hEGFRvIII; hEGFRvII
Kind of test: flow cytometry (FACS), purified His-tagged scFv on HEK293F cells transiently transfected with hEGFRvIII. As for the experimental part: HEK293F suspension cells were transiently transfected with either wild type hEGFR or hEGFRvII and were harvested 2 days after transfection. Approximately 5e5 cells/per well were transferred to a BD Falcon 96 well plate. The cells were spun down at 900 rpm (Sorval Legend XT centrifuge) for 3 minutes. The supernatant was removed. Anti-EGFRvII scFv protein samples were diluted in DPBS with 5% FBS. The samples were added into the wells, mixed and incubated for 1 hour. The cells were washed twice in the DPBS with 5% FBS. The cells were incubated with anti-poly His PE (R&D) for 1 hour, washed twice before FACS analysis (LSRII from BD Biosciences).
For orientation: In flow cytometry, cells or beads pass a laser one at a time.
Turning to B1, the binding result is on record as “binds”.

As for B2, the binding result was “binds”.

In the case of B3, the binding result is “binds”.

On to B4, for which the binding result is listed as “binds”.

Take B5: the binding result was “binds”.

As for B6, the binding result was “binds”.

The target in a further test is T2, EGFRvIII-Fc fusion protein (UniProt P00533 25-645).
T2 construct: Soluble reagent used at different concentrations to stain CAR-transfected Jurkat cells; not shown: Fc part; detected with PE anti-human IgG Fc
Description: flow cytometry, Jurkat E6 cells electroporated with the CAR vector, stained with different concentrations of Fc fusion protein and PE anti-human IgG Fc. As for the experimental part: Jurkat E6 cells were electroporated with either CAR9 vector or CAR10 vector using Amaxa Cell Line Nucleofector Kit V (Lonza, Colgne AG, Germany) and program X-001. One day after the transfection, 0.5×10⁶ cells were placed into each well of a V-shape 96 well plate (Greiner Bio-One, Germany) in 0.2 ml FACS buffer (DPBS buffer containing 5% FBS) and incubated for 10 minutes at room temperature. Cells were then spun down and resuspended in 0.2 ml of the FACS buffer with different concentrations of EGFRvIII-Fc or EGFRwt-Fc and incubated at 4° C. for 30 minutes. Cells were then washed with FACS buffer three times, and incubated with 0.2 ml of the FACS buffer with 2 μl of PE anti-human IgG Fc (Jackson ImmunoResearch Laboratories, West Grove, PA) for 30 minutes at 4° C. in the dark. After washing with 0.2 ml of FACS buffer three times, cells were analyzed on a LSRII (BD Biosciences, San Jose, CA) machine using the FACSDiva software (BD Biosciences, San Jose, CA). Immunofluorescence staining was analyzed as the relative log fluorescence of live cells, and the percentage of the PE positive cells were measured.
In the case of B7, the “fold lower binding compared to CAR9” value is about 40 fold.
